Laboratory results as given in US20250228941, “CELLULAR THERAPY” (UNIVERSITÄt BASEL, published 2025).

Tests used:
Conditions in all cases: tags: His-tag, Abcam ab198455, labeled with RED-Tris-NTA
[1] = biological target: T1, PHGDH (D-3-phosphoglycerate dehydrogenase) (Homo sapiens, UniProt O43175 SEQ:1-533); test: MST; low response amplitude; no AU-rich elements; RNA up to 850 nM, same buffer
T1 sequence: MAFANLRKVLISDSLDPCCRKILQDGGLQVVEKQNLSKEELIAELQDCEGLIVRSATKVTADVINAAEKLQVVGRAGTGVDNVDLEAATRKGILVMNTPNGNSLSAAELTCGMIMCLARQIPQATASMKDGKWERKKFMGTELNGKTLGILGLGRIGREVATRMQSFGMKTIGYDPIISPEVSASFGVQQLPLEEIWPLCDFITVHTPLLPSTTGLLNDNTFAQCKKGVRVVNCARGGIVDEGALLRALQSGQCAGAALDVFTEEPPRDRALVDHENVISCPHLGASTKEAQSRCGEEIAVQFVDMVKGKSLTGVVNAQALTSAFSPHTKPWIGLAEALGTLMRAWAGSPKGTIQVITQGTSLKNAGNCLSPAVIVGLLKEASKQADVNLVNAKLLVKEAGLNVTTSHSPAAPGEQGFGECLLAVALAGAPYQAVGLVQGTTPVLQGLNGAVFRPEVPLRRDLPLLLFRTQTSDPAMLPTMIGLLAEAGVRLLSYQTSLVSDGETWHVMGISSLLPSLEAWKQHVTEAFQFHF
Procedure: (§1) Microscale thermophoresis experiments were performed using a NanoTemper® Monolith NT.115 (NanoTemper Tenchologies, Germany) with blue and red filters. His-tagged PHGDH protein was labeled using the Monolith His-Tag labeling Kit RED-Tris-NTA 2nd generation (SKU: MO-L018), according to manufacturer's protocol (Step B, Step C). Briefly, 90 μl of PHGDH protein (200 nM) was mixed with 90 μl of dye (100 nM) and incubated for 30 min at RT. Samples were centrifuged for 10 min at 4° C. at 15.000×g and transferred into a fresh tube. RNA was brought to a concentration of 1700 nM and a serial dilution of 1:2 over 16 steps in binding buffer (10 mM Tris HCl, 50 mM KCl, 0.5 mM EDTA, 0.1 mg/ml BSA, 10% (v/v) Rnase/Dnase free glycerol) was performed. Fluorescently labeled protein was added at a final concentration of 50 nM to each tube. 16 capillaries were loaded with IRF1 3′UTR RNA (highest concentration 850 nM) and PHGDH protein (50 nM). Samples were measured with the following settings: 20% LED/excitation and medium MST power. At the final dye concentration of 25 nM, the expected fluorescence intensity at 20% LED/excitation is around 300 counts on a Monolith NT.115.

[2] = biological target: T1, PHGDH (D-3-phosphoglycerate …); test: MST; high response amplitude; fitted to Kd model but no value given; 50 nM PHGDH, RNA 13-850 nM; 10 mM Tris HCl, 50 mM KCl, 0.5 mM EDTA, 0.1 mg/ml BSA, 10% glycerol
Procedure: (§2) Data were fitted to the Kd model.
as §1

[3] = biological target: T1, PHGDH (D-3-phosphoglycerate …); test: MST; mutation impeded binding; RNA up to 850 nM, same buffer
Procedure: as §2, §1

ACAUGUGCCAGCUAAGCACUUGAAAUGUGGCCAGUGCAAUA (ssRNA) [IRF1 3'UTR fragment 4 (Fg4)]
binding result [1]: no binding

AGGAAUUGAACUUUUAAUUGCAUUUAAUAAACUGUAUGUAAAUAGUCA (ssRNA) [IRF1 3'UTR fragment 3 (Fg3)]
binding result [2]: binds

AGGAAUUGAACCCUUAAUUGCAUUUAAUAAACUGUAUGUAAAUAGUCA (ssRNA) [mutated fragment 3 (muFg3)]
binding result [3]: no binding
